Results: patent publication EP4814013A1 (Nanjing Regenecore Biotech Co., Ltd., dated 2026)
Blank lines part the entries; values can stand above or below the binder they belong to.

Legend:
[1] = molecular target: T1, human recombinant CD16a extracellular domain protein, amino acids 17-208 with V at position 176 (CD16a-V176) (human, UniProt P08637 17-208); assay: ELISA of crude VHH extracts of panned phage-library clones on coated antigen, anti-HA-HRP; positive = OD more than 5 times the control
T1 construct: range 17-208; Made in-house in 293F cells; also called human CD16a (V176)
T1 sequence (P08637 17-208 F176V limits assumed): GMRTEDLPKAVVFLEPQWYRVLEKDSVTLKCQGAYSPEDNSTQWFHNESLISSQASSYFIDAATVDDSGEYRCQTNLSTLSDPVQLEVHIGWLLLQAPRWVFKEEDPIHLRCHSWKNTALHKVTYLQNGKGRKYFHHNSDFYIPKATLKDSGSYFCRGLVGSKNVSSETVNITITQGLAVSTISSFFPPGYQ

[2] = molecular target: T2, human recombinant FOLR1 extracellular domain protein, amino acids 25-233 (human, UniProt P15328 25-233); assay: phage display panning and clone ELISA as in Examples 1-4
T2 construct: range 25-233; Made in-house in 293F cells
T2 sequence (P15328 25-233 limits assumed): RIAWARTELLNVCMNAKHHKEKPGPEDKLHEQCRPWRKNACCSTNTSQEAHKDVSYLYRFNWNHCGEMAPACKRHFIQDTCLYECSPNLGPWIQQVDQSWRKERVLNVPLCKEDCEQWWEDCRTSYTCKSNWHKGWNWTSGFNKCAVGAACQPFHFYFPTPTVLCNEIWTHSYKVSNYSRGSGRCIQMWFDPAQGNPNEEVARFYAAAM

[3] = molecular target: T3, human recombinant Nkp46 extracellular domain protein, amino acids 22-254 (human, UniProt O76036 22-254); assay: as above
T3 construct: range 22-254; Made in-house in 293F cells
T3 sequence (O76036 22-254 limits assumed): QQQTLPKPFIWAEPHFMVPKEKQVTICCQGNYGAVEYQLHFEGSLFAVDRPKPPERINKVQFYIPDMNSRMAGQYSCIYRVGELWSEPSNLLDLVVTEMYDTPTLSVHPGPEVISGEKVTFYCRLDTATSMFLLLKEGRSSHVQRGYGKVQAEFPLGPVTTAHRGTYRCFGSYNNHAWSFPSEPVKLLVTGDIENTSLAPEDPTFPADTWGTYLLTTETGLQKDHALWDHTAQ

[4] = molecular target: T4, human recombinant CD16a extracellular domain protein, amino acids 17-208 with F at position 176 (CD16a-F176) (human, UniProt P08637 17-208); assay: ELISA of crude VHH extracts of panned phage-library clones on coated antigen, anti-HA-HRP; positive = OD more than 5 times the control
T4 construct: range 17-208; Made in-house in 293F cells; also called human CD16a (F176)
T4 sequence (P08637 17-208 limits assumed): as the sequence (P08637 17-208 F176V limits assumed) above, with V160F counted along it

- binding result [1]: binds
B1: anti-CD16a single-domain antibody clone 14A3 (VHH, crude extract from pMECS) (VHH)
VHH: QVQLVESGGGLVQPGGSLRLSCEVSGRTFSYLALGWFRQAPGKEREFVAAASWGGGSTGYADSVKGRFAISRDNVKNTQYLQMNSLKPEDTAVYYCVVGRRFKGSVYYTPNEYEYWGQGTQVTVSS
notes: Crude antibody extract of an E. coli TG1 clone; not shown: C-terminal tag(s) from the pMECS vector (HA tag detected with anti-HA-HRP, tag for nickel-column purification)

- binding result [1]: binds
B2: anti-CD16a single-domain antibody clone 23D1 (VHH, crude extract from pMECS) (VHH)
VHH: QVQLVESGGGLVQAGGSLRLSCAVSGRTFSYLAMGWFRQAPGKEREFVAASSWGGGTSGYADSVKGRFAISRDNAKNTQYLQMNSLKPEDTAVYYCVVGRRFKGSVYYTPNEYEYWGQGTQVTVSS
notes: as for B1

- binding result [2]: binds
B3: FOLR1-4F4 single-domain antibody (VHH)
VHH: QVQLVESGGGSVQAGGSLRLSCAASDGTYRRYCMGWFRQAPGKEREKVAAIYTGDGTTYYADSVKGRFTISQENAKNTMYLQMNSLKPEDTAMYYCAADRSGCSVAWSYSSFEDWGQGTQVTVSS
notes: Parental (not humanized) clone as screened

- binding result [3]: binds
B4: Nkp46-7F10 single-domain antibody (VHH)
VHH: QVQLVESGGGLVQAGGSLRLSCAASGRTFSSYAMGWFRQAPGKEREFVAGISWSGDSTYYADSVKGRFTISRDNAKNTVGLQMNSLKPEDTAVYYCAAASGQVQTVVVVTDRWYHYWGQGTQVTVSS
notes: as for B3

- binding result [4]: binds
B5: anti-CD16a single-domain antibody clone 4B5 (VHH, crude extract from pMECS) (VHH)
VHH: QVQLVESGGGLVQAGGSLRLSCAASGGTFRIYAMGWFRQAPGKEREFVGSISMMRGITDYAESVKGRFTISRDNAKFTMYLQMNSLKSEDTAVYYCAKAVDKSPYGGWGWGPYDDWGQGTQVTVSS
notes: as for B1

- binding result [1]: binds
B6: anti-CD16a single-domain antibody clone 13G6 (VHH, crude extract from pMECS) (VHH)
VHH: QVQLVESGGGLVQPGGSLRLSCAASGRTFRIYAMGWFRQAPGKEREFVGSIRLMRGITDYADSVKGRFTISRDNAKFTMYLQMNTLKPEDTAVYYCAAVGSGGDFYTPSTSGEYRYWGQGTQVTVSS
notes: as for B1

- binding result [4]: binds
B7: anti-CD16a single-domain antibody clone 15E2 (VHH, crude extract from pMECS) (VHH)
VHH: QVQLVESGGGLVQAGDSLRLSCAASGGTFRIYAMGWFRQAPGKEREFVGSISMMRGITDYAESVKGRFTISRDNAKFTMYLQMNTLKPEDTAVYYCAIRERPPPMGWGLAGISYDYWGQGTQVTVSS
notes: as for B1
